Patent US20260348975 (published 2026)

T1: IL-33/sST2 complex (human)
T1 chain 1: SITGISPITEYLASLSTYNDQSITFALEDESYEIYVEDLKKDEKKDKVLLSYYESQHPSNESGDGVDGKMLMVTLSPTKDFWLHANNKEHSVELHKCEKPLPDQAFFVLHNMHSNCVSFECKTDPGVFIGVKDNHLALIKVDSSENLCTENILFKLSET
T1 chain 2: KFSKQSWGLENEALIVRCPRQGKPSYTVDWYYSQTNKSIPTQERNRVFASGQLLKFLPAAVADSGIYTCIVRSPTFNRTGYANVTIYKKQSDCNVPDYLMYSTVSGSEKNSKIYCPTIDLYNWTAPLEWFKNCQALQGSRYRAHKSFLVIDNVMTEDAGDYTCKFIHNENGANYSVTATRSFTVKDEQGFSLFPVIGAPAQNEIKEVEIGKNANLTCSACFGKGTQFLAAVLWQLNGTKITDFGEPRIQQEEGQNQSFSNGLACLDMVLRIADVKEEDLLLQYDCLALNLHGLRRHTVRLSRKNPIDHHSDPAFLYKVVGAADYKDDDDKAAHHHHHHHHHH

T2: reduced IL-33 (human)
T2 chain: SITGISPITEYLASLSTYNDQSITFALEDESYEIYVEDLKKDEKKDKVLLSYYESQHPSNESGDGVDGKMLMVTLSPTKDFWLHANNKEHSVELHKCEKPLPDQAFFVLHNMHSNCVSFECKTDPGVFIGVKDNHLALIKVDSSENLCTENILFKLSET

T3: oxidized IL-33 (human)
T3 chain: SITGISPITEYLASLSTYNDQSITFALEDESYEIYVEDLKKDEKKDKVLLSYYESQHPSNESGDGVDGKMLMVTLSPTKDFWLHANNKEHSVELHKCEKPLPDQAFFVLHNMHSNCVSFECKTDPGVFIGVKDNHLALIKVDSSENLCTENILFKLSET


Tests used:
Assay in all cases: SPR
IL-33/sST2 complex = molecular target: T1, IL-33/sST2 complex
reduced IL-33 = molecular target: T2, reduced IL-33
oxidized IL-33 = molecular target: T3, oxidized IL-33

Kd (IL-33/sST2 complex) | Kd (reduced IL-33) | Kd (oxidized IL-33) | Binder
26.5 nM | 0.895 nM | – | AB1070008 (antibody, V domains shown) VH: QVQLQQSGPELVKPGASVKTSCKASGYSFTSYYIHWVKQRPGQGLEWIGWIYPGSGNTKYNEKFKGKATLTADTSSSTAFMQLSSLTSEDSAVYYCASGFHYYGRMDYWGQGTTLTVSS VL: DIQMTQSPSSLSASLGERVSLTCRASQEISGYLSWLQQKPDGTIKRLIYSTSTLDSGVPKSFSGSRSGSDYSLTISSLESEDFADYYCLQYASSPWTFGGGTKLEIK
– | – | 1.83 nM | AB1070141 (antibody, V domains shown) VH: QVQLQQSGAELMKPGASVKLSCKATGYIVTDYWIEWVKQRPGHGLEWIGEILPRSDSTNYNEKFKVRATFTADTSSNTAYMQLSSLTTEDSAIYYCASHYHYDGSLFVYWGQGTLVTVSS VL: DIVMSQSPSSLAVSAGEKVTMSCKSSQSLLNSRTRKNYLAWYQQKPGQSPKLLIYWASTRESGVPDRFTGSGSGTDFTLTISSVQAEDLAVYYCKQSYSLPTFGGGTKLEIK
– | 0.068 nM | – | AB1070019 (antibody, V domains shown) VH: QVQLQQSGAELAKPGASVKMSCKASGYTFTRYWMHWIKQRPGQGLEWIGYINPYSGYTEYNQKFKDKATLTADKSSSTAYMQLSSLTSEDSAVYYCARYSYYTYDGRGYAMDYWGQGTSVTVSS VL: DIVMTQSQKFMSTSVGDRVSVTCKASQNVGTNVAWYQQKPGQSPKALIYSASYRYSGVPDRFTGSGSGTDFTLTISNVQSEDLAEYFCQQYNSYPFTFGSGTKLEIK
